# Measurements from CN115125215A.
# B1: 单克隆抗体λ4-1A2 (sIFN-λ4单克隆抗体, secreted by hybridoma cell line λ4-1A2, CCTCC NO:C2022132) (antibody, V domains shown)
# VH: QVTLKESGPGKLQPSQTLTLTCSFSGFSLNTYGIGVAWIRQPSGKGLEWLAHIWWNDNKYYNSALKTRLTISKDTSNNQVFLKIASVDTADTATYYCASIKGDYWGQGTS
# VL: NIVLTQSPASLAVSLGQRATISCRASKSVDSFGKSFMHWYQQKPGQPPKLLIYLVSNLESGVPARFSGSGSRTDFTLTIDPVEADDAATYYCQQNNEDPPTFGGGTKLEIKR
# Experiments:
# [1] = target: 原核表达并纯化的sIFN-λ4重组蛋白 (porcine IFN-λ4, E. coli, pET-15b-sIFN-λ4) (pig); test: indirect ELISA, antigen coated in 2-fold dilutions; positive if OD630nm of the well : OD630nm of the negative well ≥2.1
# [2] = target: 原核表达并纯化的sIFN-λ4重组蛋白 (porcine IFN-λ4, E. coli, pET-15b-sIFN-λ4) (pig); test: indirect ELISA, purified ascites antibody diluted 100-fold and then in 2-fold steps to 100×2^12
binder,measurement,setting,value
B1,最低检测限 (lowest detectable amount of coated antigen),[1],6.25 ng
same,效价 (ELISA titre) (fold dilution),[2],205000
